The series in a line: soluble on expression in E. coli; label from the status in PepcDB or PDB records.
As to “MSLTTRLADIAAQAGVSEATVSRVLNGKPGVAATTRQSVLAALDVLGYERPVRLRQRSEGLVGLITPELENPIFPALAQVIGQALTRQGYTPVLATQTPGGSTEDELTEMLVDRGVAGIIFVSGLHADTSADMQRYDQLRAQGVPFVLVDGFSPKVQAPFISPDDRAAMTLAVTHLVSLGHTRIGLALGPKRFVPVQRKIEGFVRSVQEQLGLSPDDVERELVQHSLYTLEGGQAAATALMDRDCTAVVCASDMMALGAIRAARQRGLDVPKDISVVGFDDSPLIAFTDPPLTTIRKPVPAMGQAAVRTLLEEIGGTPAPHSEFVFMPELVVRGSTASAPGDRNRPEGHHHHHH”, the “soluble on expression in E. coli” value is given as “soluble”.
“MSPRSPRHDKILQLVRENGFMPIEELARLLDVTPQTIRRDINQLCEANLLRRYHGGAALGNSVENEDYFARKGKFQSEKAHIADMIARSIPDHASLFMSIGTTIEAVAQALTATHKGLRVITNNIHVASIMSTNPDFTAMITSGTVRASDGGITGVATLDFINQFKVDYAIIGVSGIEPDGSLLDFDYREVRVAQAMMNNARHRYLAADHSKFGRNALVRMGHISEFHTVFTDAAPPEPVTKLLEEHNVRLVLSEALEHHHHHH”: the “soluble on expression in E. coli” value was “soluble”.
On to “MTPHVMKRDGCKVPFKSERIKEAILRAAKAAEVDDADYCATVAAVVSEQMQGRNQVDINEIQTAVENQLMSGPYKQLARAYIEYRHDRDIEREKRGRLNQEIRGLVEQTNASLLNENANKDSKVIPTQRDLLAGIVAKHYARQHLLPRDVVQAHERGDIHYHDLDYSPFFPMFNCMLIDLKGMLTQGFKMGNAEIEPPKSISTATAVTAQIIAQVASHIYGGTTINRIDEVLAPFVTASYNKHRKTAEEWNIPDAEGYANSRTIKECYDAFQSLEYEVNTLHTANGQTPFVTFGFGLGTSWESRLIQESILRNRIAGLGKNRKTAVFPKLVFAIRDGLNHKKGDPNYDIKQLALECASKRMYPDILNYDQVVKVTGSFKTPMGCRSFLGVWENENGEQIHDGRNNLGVISLNLPRIALEAKGDEATFWKLLDERLVLARKALMTRIARLEGVKARVAPILYMEGACGVRLNADDDISEIFKNGRASISLGYIGIHETINALFGGEHVYDNEQLRAKGIAIVERLRQAVDQWKEETGYGFSLYSTPSENLCDRFCRLDTAEFGVVPGVTDKGYYTNSFHLDVEKKVNPYDKIDFEAPYPPLANGGFICYGEYPNIQHNLKALEDVWDYSYQHVPYYGTNTPIDECYECGFTGEFECTSKGFTCPKCGNHDASRVSVTRRVCGYLGSPDARPFNAGKQEEVKRRVKHLGNGQIG”, for which the “soluble on expression in E. coli” value was “not soluble”.
“MTQTVYVKLSQITQVHKKDVFLSDIADVYCSDKSTASRCKAVKVQTIHSDQEKRYMGSIVDVVQKISENVPEAEVNSVGETDFIIDYQPSKKPMYTWQW”: the “soluble on expression in E. coli” value was “not soluble”.
Next, “MSDPAIAVLPYGMKLGPALSGLPLDQVNWPLGCPERLVGKTLGDLGAGDHLLVYPRTGTHFQLSRGTRARISLIMAEPAVIHAKHYALLRVTWRRFHRVLTFNQAAVDRLPNARLLLFGSTWVPEWQSLTPEKVAQCSLIASAKRDSTGHKLRHAVVDWVRASDQDVAVLGRGYQPFDSKADGLAPYRYSVVIENVQERNYFSEKLLDAVFCETVPIYWGCPNIADFVDTTAMILCTREEDIRRAVAEMSAEDYAARLPALRALKQQLAPYAAHEARAARMILDELLEHHHHHH”: “soluble”; “GMKTNEVLETIKARRSVRAYDRKQIPADDLNAILEAGAYAPSGMHYETWHFTAVCNTVKLEELNERIKGAFAKSDDKHLRERGHSETYCCYYHAPTLVIVSNEPKQWWAGMDCACAIENMFLAATSLGIASCWINQLGTTCDDPEVRAYLTSLGVPENHKVYGCVALGYKAEGALLKEKTVKAGTITIVE”: “soluble”; “MSLTKTLIVNAHPDFRNAAHYSVQLEQAFLQLFQTRFPNDTVDVLNLYDTVIPQATVPELLGIWEKQAQHVNLSIEEQRLFAINQQLLQQFKAHHRIVIAMPLHNFNVPARLKDYIDNILVARETFRYTENGSVGLMTDNYRVMLLQASGSIYTRNDRYTPMEFSRLYLDKMFTEIMGFDRFEIVRAQGLQTNGVAVSQALKQAKMDLKAAFERFYDEGHHHHHH”: “soluble”.
Next, “MDKGKGSKRSTPSLRAKKKTGTDRQKPSVKQNASQNSKKSSRQKKTPSVGKEREQATDKKREIEKKPQEKTALDEQQRKAQTETISNLEILPDKNPAKMDDGYEDFGPGAAAR”: “not soluble”.
For “MTAGPQAHGHAPQTAGLAALEARLRQDLAWLELPAKPWTLPHALDGQPVLDVAIIGGGMAGLAAATALKHLGIGAVVFDRAPEGYEGPWATTARMETLRSPKQLTGPALGLPALTFRAWFEAQFGADAWETLDKIPRLQWMDYLRWYRRVLQLEVRNAHHVRTVQPRADGAVELTLDTPDAAGQRVLARRVVLATGRDGLGGPAVPAFAHRLPHRWWAHSSDAMDYGALAGKRVGVIGAGASAMDSAATALEAGAASVDLLIRRPDLPRINKGKGAGSPGLVHGHQHLPDAWKWRIRHYINAEQVPPPRGSTLRVSRHPNARFNLGCPVLGVDEHNGALHVTTPKGVFRLDFLIFSTGFRLDWAARPEFSALAPHVRLWRDRYTPRPGEEDAELSDSPDLGPAFELREKTPGQLPGLSRVHCFCYPASLTHGSVSGDIPAISEGARRLAQGIAGLLYQEDIEGHYAAMQAYAEPEIFGDEWTPAPPPQSEPAAAAASPAREAARLEHHHHHH” the value was “not soluble”; for “MTTHTGGCQCGAVRFRATGDLQDSSICHCRMCQKAFGAYYAPLVSVRNVEFEWTRGEPKRFQSSSVVKRGFCPECGTPLTYEAPDGVAVAAGAFDDPAALPPTIQWGVERKIDFVDTLHTLPAVATEDDLTQVDYLTNLVSYQHPDHDTENWPPEKR”, “not soluble”; for “SLQLKSEKARIILSGEPTLLIDKGKIDISALKSQRLNINDLMEELRLKNYFNVEDIEYAILETSGQISLIPKTHLTNATKEDLNLKVKQENVPITIILDGKVNTDNIKYLNKDADWLMKELKKNKIDSPKDVFLALIDSKGKFYYQKYNN”, “soluble”.
As for “MDNTEDVIKEFMQFKVRMEGSVNGHYFEIEGEGEGKPYEGTQTAKLQVTKGGPLPFAWDILSPQFQYGSKAYVKHPADIPDYMKLSFPEGFTWERSMNFEDGGVVEVQQDSSLQDGTFIYKVKFKGVNFPADGPVMQKKTAGWEPSTEKLYPQDGVLKGEISHALKLKDGGHYTCDFKTVYKAKKPVQLPGNHYVDSKLDITNHNEDYTVVEQYEHAEARHSGSQ”, the “soluble on expression in E. coli” value was “soluble”.
For “MTSSPPSFMSYEDRIQEGDTVIVYVTYGQMVPTIVKRGQTLMMKYGALRHEFIIGKRWGQRLSATAGYVYILRPTSDLWTRALPRRTQILYTADCAQILSLLDAKPGSVICESGTGSGSLSHAIALTVAPTGHLYTHDIDETRTHKVLEEFKVHGLGSVTTAVVRNVCTSGFHVENAADGVFLDVPAPWEAIPFAAKSIFRARGGRLVSFSPCLEQVQRACLAMAAAGFVSIETIELVPEQKKIVSQHRQTLEEFEELGDAYPKERKRNVDGTIVEQSSSAIPRITIAIVYPYSQPTHTGYLTHATMLPVAE” the value was “not soluble”; for “MGHHHHHHSHMHKSNFETLQHYLESQIIGQHDLVKQLLIALLADGHILVEGPPGLAKTRAVKSLSDCVEGDFHRIQFTPDLLPADLTGTDIFRPETGEFTFQSGPIFNSLILADEINRAPAKVQAAMLEAMAEKQVTAGRHTYALPELFLVMATQNPIEQEGTYPLPEAQLDRFLLHLEVDYPDAEHELAILRINRGEAKGECSIERPSLSQQDIFTARQEVLDIHMAEAIEQYIVRLVMATRRASEYDSELDKWLAMGVSPRATIALDRCARAHAWLAGRDFVSPEDVQAMAYPVLRHRLLLSYHAQAEGVTSNQVIDKLLNLVGSA”, “soluble”; for “MACHELSALRIAIGELLEKEAHDLLHEREELAPVLGQRPELKRLAEAKTLPALEEALREALLHLEERAAQEPEEPYWRGLLLAVEAMEGRLKALRAEAEALYQDLDALHGRLHRLFPRRR”, “soluble”.
“MENKYTHGVLFYHEHSGLKNINQGIGEVTTALSSICKHLSIQLSENEGDIIKYCQEIKTKNYAKDVDILFILGGDGTVNELINGVMSHDLQLPIGILPGGTFNDFTKTLNIAPNHKQASEQMISAQVGTYDVIKINNQYALNFVGLGLIVQNAENVQDGSKDIFGKLSYIGSTVKTLLNPTQFNYQLSIDDKTYSGETTMILTANGPFIGGSRIPLTDLSPQDGELNTFIFNEQSFSILNDIFKKRDSMNWNEITQGIEHIPGKKISLTTDPAMKVDIDGEISLETPIDIEVIPNAIQLLTVNDL”: the “soluble on expression in E. coli” value was “soluble”.
In the case of “MANQLSTQQVKRDITTDPTLLTGADIKKYFDPQNLLSEKQVGQALALCKGRNLNPFANEVYIVAYKNNSGTDFSLIVSKEAFMKRAERCEGYDGFEAGITVMRNGEMVEIEGSLKLPDDVLIGGWAIVYRKDRSHRYKVTVDFNEYVKLDKYGNPRSTWKSMPGTMIRKTALVQTLREAFPDELGNMYTDIDGGDTFDAIKDVTPQETQEEVRARKMAQIEQYKQEQTQKQTQKADTSYPVDEVSEHTDDPVQGELLDGELEY”, the “soluble on expression in E. coli” value is recorded as “not soluble”.
Turning to “MSTVVSEGRNDGNNRYSPQDEVEDRLPDVVDNRLTENMRVPSFERLPSPTPRYFGSCKWFNVSKGYGFVIDDITGEDLFVHQSNLNMQGFRSLDEGERVSYYIQERSNGKGREAYAVSGEVEGQGLKGSRIHPLGRKKAVSLRCFRCGKFATHKAKSCPNVKTDAKVCYTCGSEEHVSSICPERRRKHRPEQVAAEEAEAARMAAEKSSPTTSDDDIREKNSNSSDE”, the “soluble on expression in E. coli” value is recorded as “not soluble”.
For “MFLKRIELQREKVLSFQEYPFSIPAIKHFQRLELKSRVTFFVGENGSGKSTLLEAIADKCEFNTAGGGRNNYYEVDASESALGDYIRLSWLPKVSNGFFLRAESFYHFASHVDEVDARHAYGGRSLHHQSHGEAFLSLFANRFNRKGIYLLDEPEAALSPRRQLSFLAILHDLVSSGDSQFIIATHSPILLGYPHATILSFDHGTIEETTYEQTEHYQLTRYFLENRERMLRELLGELEHHHHHH” the value was “not soluble”.
For “SLMQALARTGYAGPLSLEIFNDAFRAAPTEATAIDGLRSLIWIEELAEGAAWSEASPPAVGYDGVHFIEFTLDEESAAPLGEFFSALGFRHIGRHRSKNVELWHQGDIHLVLNFETDSFAHTFRLLHGTSVCAVGVRVNDLDSAVTRAAHYKAQWFRGPVGEGEMEIPALRGIEGSLVYLVDDAQAREMQWKTDFHLFEDGQDDDAGLINIDHISYVLPPTQLLSWLLFHRTVFGFDAGPEHEIADPHGMVVSQTVTSPDNSVRIPLTVSSARETLPGRFLSEHQGGVQQIAFASGDIFATIDAMLARGLPMLRIPANYYDDLAARFDLDDALLEAMRSRNILFDRNDDGDFFHAYTETFMGRFFFEVVERRGSYSQFGAVNAPIRLAAQAGQQREG”, the “soluble on expression in E. coli” value was “soluble”.
Regarding “MGSDKIHHHHHHMNFVTTIGLEVHVELKTNSKIFSPSPVQFGSEPNANTNVIDWGYPGVLPTPNKGVVEAGIKAATALHAEIEHHTYFDRKNYFYPDNPKAYQITQHEKPIAHDGWIEIEVDGKKKKIGIEEMHIEEDAGKNTHENDYSYVDLNRQGTPLIEIVSKPDIASPEEAYAYCEALRQRIQFTGVSDVKMEEGSMRVDVNISIRPAGSDKYGVKTEMKNLNSFNYVRKSLEYEEQRQQQVLMAGGKIQQETRRFDETTGQTILMRVKEGSDDYRYFPEPDIPAVDIDDDWIASVKKTIPEMPGSRRERYINEFGLTAYDAGVLTQTKEMSDFFDATVAEGADPKLASNYLQGDVNAYLNEHKVDLLATDLTPTNLAGMIKMISDETISSKIAKKVFKAIMAGSEPVQWVNDKGLVQLSDPAKLQPIVDDVLDNNQQSIDDFKNGKDRAVGFLVGQIMKKTRGQANPKVVNQLLMTSLKAR”, the “soluble on expression in E. coli” value is “not soluble”.

These data come from the DeepSol protein solubility set.
